These results are taken from PMC5226589.

The target in assay [1] is telomere target construct (TCON): HALO-tagged fusion of EGFP, CIB1 and TRF1 (UniProt Q8GY61). The experiment in a line: FRET or BRET; FLIM-FRET in live HeLa cells co-transfected with TCON and ECON; lifetime of EGFP (donor) with mCherry (acceptor); blue light 8 mW/cm^2 for 5 min (a similar response after 8 min at 1 mW/cm^2).
For assay [2] the target is unchanged.

As to “epigenetic effector construct (ECON): HALO-tagged fusion of DNMT3A, CRY2PHR and mCherry (from UniProt Q9Y6K1 1-912)”, the average fluorescence lifetime of EGFP (FRET donor on TCON) after 5 min of blue light in assay [1] was found to be 2.06 ns. This substance also displayed a mean telomere length (TRF, Southern blot) of co-transfected HeLa cells exposed to blue light over three generations (5.3 Kb Gen-1 to 6.03 Kb Gen-3; without light 5.01 Kb to 4.6 Kb) in assay [2] of 6.03 Kb.
